B1: Hairpin Ribozyme (parent)
chain: GUCCUCUUUCACGUGCGCGUGAAAGAGAGAAGUGAACCAGAGAAACACACGUUGUGGUAUAUUACCUGGUA

Variants of B1 are the subject of this data set. Put plainly: self-cleavage, relative activity (ratio to wild type); higher = more cleavage; co-transcriptional.
With G19C U67G, the self-cleavage was determined as 0.227.

In the case of G19C U67A, the self-cleavage was 0.323.

C18G A41C: the self-cleavage is 0.952.

C18A: the self-cleavage was determined as 1.06.

For C18G, the self-cleavage worked out at 0.931.

As to C18U, the self-cleavage was 1.06.

C18A A71C: the self-cleavage amounted to 1.34.

For the variant C18A A71U, the self-cleavage stood at 0.831.

For the variant G19C G54U, the self-cleavage amounted to 0.626.

In the case of C18U U70C, the self-cleavage came out at 0.984.

G19A U53A: the self-cleavage was found to be 0.919.

G19U C37A: the self-cleavage worked out at 0.34.

Turning to C18U G19C, the self-cleavage stood at 0.89.

For the variant G17U G32A, the self-cleavage was 0.122.

On to C18A A39G, for which the self-cleavage was determined as 0.395.

Regarding G17U G56U, the self-cleavage was found to be 0.112.

For the variant G19A A26G, the self-cleavage was determined as 0.932.

Regarding G19A A26C, the self-cleavage was determined as 0.541.

On to C18U A35C, for which the self-cleavage came to 0.968.

Take C18U A35G: the self-cleavage stood at 0.986.

With C18A C65U, the self-cleavage was found to be 0.254.

Regarding G19U G40A, the self-cleavage amounted to 0.325.

Turning to G19A G29U, the self-cleavage came to 0.21.

Take G19A G69C: the self-cleavage is 0.129.

G19A G69A: the self-cleavage is 0.347.

Take G19U A59G: the self-cleavage was 0.204.

As for G19U A59U, the self-cleavage was determined as 0.213.

C18G U70A: the self-cleavage stood at 0.885.

G19C G40U: the self-cleavage is 0.091.

As for G19C G40A, the self-cleavage amounted to 0.343.

As to C18U G25U, the self-cleavage was determined as 0.69.

On to C18A A43C, for which the self-cleavage was 0.107.

Regarding C18A A43U, the self-cleavage was 0.196.

Take C18A G42A: the self-cleavage is 0.203.

Take C18A G34U: the self-cleavage was 1.46.

As to C18A A36U, the self-cleavage is 0.593.

As for C18A A36G, the self-cleavage was determined as 0.972.

As for C18U G69U, the self-cleavage was determined as 0.272.

On to C18U G69C, for which the self-cleavage came out at 0.334.

For the variant C18G U63A, the self-cleavage is 0.147.

For the variant C18A A31C, the self-cleavage came out at 0.192.

For the variant C18A C37A, the self-cleavage stood at 0.315.

Take G19U A44U: the self-cleavage was determined as 0.124.

As for G19C U58G, the self-cleavage came to 0.705.

For G19C U58C, the self-cleavage is 0.815.

Turning to G19U A24U, the self-cleavage stood at 0.684.

As to G19U A24G, the self-cleavage came to 0.926.

Take C18U G40C: the self-cleavage was 0.0598.

As to C18A U63C, the self-cleavage is 0.0808.

On to G19C U53A, for which the self-cleavage came to 0.861.

For the variant C18A A35U, the self-cleavage was found to be 0.734.

As for C18A A35G, the self-cleavage was 1.05.

With G19C G29A, the self-cleavage worked out at 0.112.

Consider C18A U53C, for which the self-cleavage turned out to be 1.01.

On to G19A G42C, for which the self-cleavage stood at 0.289.

For the variant C18U U67C, the self-cleavage is 0.249.

Turning to C18U U67A, the self-cleavage was determined as 0.109.

For the variant C18A G27C, the self-cleavage came to 0.165.

As to C18A G27A, the self-cleavage is 0.534.

For the variant G19U G29U, the self-cleavage turned out to be 0.14.

As to G19U G29A, the self-cleavage turned out to be 0.111.

Turning to C18A G54A, the self-cleavage came out at 0.591.

With C18G A30G, the self-cleavage was 0.131.

As to C18U C46G, the self-cleavage was 0.145.

G19U C38A: the self-cleavage stood at 0.141.

G19U C38U: the self-cleavage came out at 0.481.

Regarding G19A A30C, the self-cleavage is 0.146.

Consider G19A A30G, for which the self-cleavage is 0.149.

Take G19C A36G: the self-cleavage was 0.766.

With G19A A44U, the self-cleavage came out at 0.269.

Take G19A A44G: the self-cleavage came to 0.137.

Turning to G17U G21C, the self-cleavage stood at 0.661.

For the variant C18G A26C, the self-cleavage was 0.489.

Consider C18G A31C, for which the self-cleavage was determined as 0.0659.

On to G19U G68C, for which the self-cleavage worked out at 0.196.

Consider G19A U55A, for which the self-cleavage is 0.29.

On to G19A U55C, for which the self-cleavage is 0.123.

On to G19A U55G, for which the self-cleavage was found to be 0.216.

As for C18U U62C, the self-cleavage was determined as 0.393.

As to C18U A36G, the self-cleavage was 1.15.

Turning to G19C A43U, the self-cleavage is 0.121.

Consider G19A A41U, for which the self-cleavage stood at 1.11.

With G19U G34C, the self-cleavage was 1.36.

Turning to G19U G34U, the self-cleavage was determined as 1.3.

C18U A43G: the self-cleavage was found to be 0.103.

Take G19A C65A: the self-cleavage was determined as 0.748.

With G19A C65U, the self-cleavage turned out to be 0.265.

In the case of G19A C65G, the self-cleavage was determined as 0.324.

Take U20A A24U: the self-cleavage was found to be 0.732.

Take G19U G54A: the self-cleavage was 0.468.

Take G19U G54U: the self-cleavage worked out at 0.497.

Regarding C18U G29U, the self-cleavage amounted to 0.172.

For the variant C18U G29C, the self-cleavage was 0.116.

As for C18U G68U, the self-cleavage came out at 0.307.

Take C18U G68A: the self-cleavage is 0.224.

As for C18U G68C, the self-cleavage is 0.221.

For C18A A28U, the self-cleavage was 0.844.

Take G19C A31G: the self-cleavage turned out to be 0.524.

As to G19C A31U, the self-cleavage came to 0.0995.

As to C18U A59G, the self-cleavage is 0.148.

Consider G19U A31U, for which the self-cleavage is 0.0864.

For the variant C18A G32C, the self-cleavage is 0.0795.

Take C18U U55A: the self-cleavage was found to be 0.128.

For the variant G19A G32A, the self-cleavage worked out at 0.131.

As to G19A G32U, the self-cleavage was 0.175.

As for C18U A41C, the self-cleavage is 1.09.

Turning to G19A A23G, the self-cleavage was determined as 0.948.

For C18U C65A, the self-cleavage worked out at 0.88.

Take C18U C65G: the self-cleavage was found to be 0.27.

On to G17U U62G, for which the self-cleavage turned out to be 0.122.

Take G17U U62A: the self-cleavage was determined as 0.198.

Consider G19C A30G, for which the self-cleavage was 0.187.

As for G17U G19U, the self-cleavage was determined as 0.581.

Turning to C18A U60C, the self-cleavage was 1.1.

With C18G G27U, the self-cleavage came to 0.199.

Turning to G19U U52G, the self-cleavage stood at 0.741.

Take G19U U67C: the self-cleavage was 0.214.

As for G19C G57A, the self-cleavage was 0.174.

For the variant C18G U53C, the self-cleavage was 0.806.

Consider C18G U53G, for which the self-cleavage came to 0.819.

Turning to C18G U53A, the self-cleavage is 1.02.

Regarding G17U U53G, the self-cleavage was 0.954.

On to G17U U53A, for which the self-cleavage worked out at 0.841.

As to G17U U55A, the self-cleavage is 0.142.

With C18G A24U, the self-cleavage was found to be 0.729.

As to C18U U20A, the self-cleavage turned out to be 0.848.

As for C18U U20C, the self-cleavage is 1.06.

For G19U A26U, the self-cleavage amounted to 0.682.

Take C18U A23G: the self-cleavage turned out to be 0.857.

With C18A G68C, the self-cleavage worked out at 0.18.

For the variant G19A A35U, the self-cleavage is 0.607.

Regarding G19A A35C, the self-cleavage was 0.987.

For the variant G19A A35G, the self-cleavage is 1.01.

In the case of G19C U52A, the self-cleavage came to 0.957.

On to C18A G57A, for which the self-cleavage came to 0.209.

For C18A G57C, the self-cleavage came out at 0.187.

On to C18G G68A, for which the self-cleavage came out at 0.268.

Consider G19A G68U, for which the self-cleavage amounted to 0.242.

On to G19U A64G, for which the self-cleavage turned out to be 0.539.

Take G19U A64C: the self-cleavage worked out at 0.162.

For C18A U52C, the self-cleavage amounted to 1.05.

Take C18G G54C: the self-cleavage is 0.471.

In the case of G17U U20G, the self-cleavage is 0.642.

G17U U20C: the self-cleavage worked out at 1.26.

As for C18A A41G, the self-cleavage came to 0.76.

With G19U U63A, the self-cleavage amounted to 0.166.

On to G19A A43G, for which the self-cleavage was 0.16.

As for G19A A43U, the self-cleavage is 0.102.

Turning to C18G G29U, the self-cleavage was determined as 0.201.

C18U A39G: the self-cleavage was found to be 0.375.

Regarding G19A G54C, the self-cleavage was found to be 0.403.

For C18U C38A, the self-cleavage stood at 0.111.

Take G17U G51U: the self-cleavage turned out to be 0.798.

With G19A U62G, the self-cleavage is 0.103.

With C18A G25C, the self-cleavage was 0.58.

On to C18A G25U, for which the self-cleavage stood at 0.761.

Turning to G19A C38U, the self-cleavage is 0.508.

Take C18G C46A: the self-cleavage is 0.0797.

Take C18G C46G: the self-cleavage was determined as 0.0987.

As for C18A U58C, the self-cleavage was 1.07.

As for G19U A39G, the self-cleavage was 0.297.

Turning to G19C A59G, the self-cleavage amounted to 0.153.

Turning to G17U C66G, the self-cleavage came to 0.158.

Take G19U G69U: the self-cleavage was 0.227.

As to C18U A45C, the self-cleavage worked out at 0.218.

Consider C18A C48U, for which the self-cleavage is 0.214.

G19C U70A: the self-cleavage was found to be 0.673.

These data come from the RNAGym collection of RNA variant scans (doi:10.7554/elife.80360).
